{
  "source": "paper PMC13170487",
  "about": "(Journal of molecular biology, 2025)",
  "key": {"[1]": {"molecular_target": "T1, Tax-interacting protein 1 (TIP-1), His10 tag cleaved (UniProt O14907 1-124)", "T1 sequence (looked up)": "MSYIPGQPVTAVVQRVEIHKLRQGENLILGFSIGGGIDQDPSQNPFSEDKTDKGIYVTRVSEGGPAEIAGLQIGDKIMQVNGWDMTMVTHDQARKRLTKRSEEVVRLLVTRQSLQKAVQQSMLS", "assay": "fluorescence polarisation"}, "[2]": {"molecular_target": "CFTR-associated ligand (CAL) PDZ domain (UniProt Q9HD26-2 276-362)", "assay": "fluorescence polarisation"}},
  "data": [
    {"binder": "ANSRLPTSII", "note": "[L-iCAL36]", "values": [
      {"measurement": "Ki", "setting": "[1]", "value": "> 1000", "unit": "µM"}
    ]},
    {"binder": "ANSRYPTSII", "note": "[Y-iCAL36]", "values": [
      {"measurement": "Ki", "setting": "[1]", "value": 390, "unit": "µM"}
    ]},
    {"binder": "WRFKKANSRWPTSII", "note": "[BT-iCAL36]", "values": [
      {"measurement": "Ki", "setting": "[2]", "value": 3.1, "unit": "µM"},
      {"measurement": "Ki", "setting": "[1]", "value": 2.4, "unit": "µM"}
    ]}
  ]
}
